In patent US20210403591A1 (OSSIANIX, published 2021):
Positions count from the first letter of the chain named.

B1: Clone C variant 1 VNAR-hFc (Fc fusion, not shown: a dimerising Fc or GST)
chain: ARVDQTPQTITKETGESLTINCVLRDSNCALSSTYWYRKKSGSTNEENISKGGRYVETVNSGSKSFSLRINDLTVEDSGTYRCNVAQRPSYNNYFWCDVYGDGTAVTVN
B2: Clone C variant 4 VNAR-hFc (Fc fusion, not shown: a dimerising Fc or GST)
chain: B1 chain with A86V
B3: Clone C variant 2 VNAR-hFc (Fc fusion, not shown: a dimerising Fc or GST)
chain: B1 chain with A86L
B4: Clone C variant 5 VNAR-hFc (Fc fusion, not shown: a dimerising Fc or GST)
chain: B1 chain with A86V, R88S
B5: Clone C variant 7 VNAR-hFc (Fc fusion, not shown: a dimerising Fc or GST)
chain: B1 chain with A86V, R88W, Y91L, N92S, N93S, Y94P
B6: Clone C variant 3 VNAR-hFc (Fc fusion, not shown: a dimerising Fc or GST)
chain: B1 chain with A86V, R88H
B7: Clone C variant 8 VNAR-hFc (Fc fusion, not shown: a dimerising Fc or GST)
chain: B1 chain with A86V, R88W
B8: Clone C variant 9 VNAR-hFc (Fc fusion, not shown: a dimerising Fc or GST)
chain: B1 chain with A86V, R88W, S90T, Y91L, N92S, N93S, Y94P
B9: Clone C variant 11 VNAR-hFc (Fc fusion, not shown: a dimerising Fc or GST)
chain: B1 chain with A86V, R88Y, S90H
B10: Clone C variant 10 VNAR-hFc (Fc fusion, not shown: a dimerising Fc or GST)
chain: B1 chain with A86V, R88Y, S90F, Y91L, N92E
B11: Clone C variant 22 VNAR-hFc (Fc fusion, not shown: a dimerising Fc or GST)
chain: B1 chain with A86V, R88Y, Y91N
B12: Clone C variant 23 VNAR-hFc (Fc fusion, not shown: a dimerising Fc or GST)
chain: B1 chain with A86V, R88Y, Y91Q, N92Q
B13: Clone C variant 21 VNAR-hFc (Fc fusion, not shown: a dimerising Fc or GST)
chain: B1 chain with A86V, R88Y, Y91I, N92F
B14: Clone C variant 6 VNAR-hFc (Fc fusion, not shown: a dimerising Fc or GST)
chain: B1 chain with A86V, R88W, Y91I, N92Q, N93S, Y94P
B15: Clone C variant 24 VNAR-hFc (Fc fusion, not shown: a dimerising Fc or GST)
chain: B1 chain with A86V, R88Y, Y91W, N92D
B16: Clone C variant 25 VNAR-hFc (Fc fusion, not shown: a dimerising Fc or GST)
chain: B1 chain with A86V, R88Y, N92D, Y94P

Target: T1, recombinant mouse TfR-1, His-tagged (Sino Biological 50741-M07H) (mouse, UniProt Q62351 89-763)
T1 construct: bought; His-tagged; also called mTfR1; mTfR-1
Test: SPR, His-captured TfR1
Description: (§1) Detailed binding kinetic analyses were performed to gain a better understanding of the relationship between affinity and brain penetration of the Clone C variants. Biacore surface plasmon resonance (SPR) analysis using immobilised mouse and human TfR-1 was performed for selected clones (Table 2).
(§2) Binding kinetics of VNAR-Fcs was determined by surface plasmon resonance (Biacore T200, GE Healthcare). CMS chips were coated with anti-His antibodies (His Capture Kit, GE Healthcare) as recommended by the manufacturer and human or mouse his-tagged TfR1 (SinoBiological) at 10 ug/mL in HBS-EP+ (GE Healthcare) was captured at flow rate 10 ul/min (contact time 120 s). […] A flow cell without TfR1 captured served as a reference. Sensorgrams were fitted and kinetic constants were determined using Biacore T200 Evaluation software. Chips were regenerated in 10 mM Glycine-HCl, pH 1.5 (contact time: 120 s at flow rate 30 ul/min).

T1 sequence (Q62351 89-763 limits assumed, stated change not applied): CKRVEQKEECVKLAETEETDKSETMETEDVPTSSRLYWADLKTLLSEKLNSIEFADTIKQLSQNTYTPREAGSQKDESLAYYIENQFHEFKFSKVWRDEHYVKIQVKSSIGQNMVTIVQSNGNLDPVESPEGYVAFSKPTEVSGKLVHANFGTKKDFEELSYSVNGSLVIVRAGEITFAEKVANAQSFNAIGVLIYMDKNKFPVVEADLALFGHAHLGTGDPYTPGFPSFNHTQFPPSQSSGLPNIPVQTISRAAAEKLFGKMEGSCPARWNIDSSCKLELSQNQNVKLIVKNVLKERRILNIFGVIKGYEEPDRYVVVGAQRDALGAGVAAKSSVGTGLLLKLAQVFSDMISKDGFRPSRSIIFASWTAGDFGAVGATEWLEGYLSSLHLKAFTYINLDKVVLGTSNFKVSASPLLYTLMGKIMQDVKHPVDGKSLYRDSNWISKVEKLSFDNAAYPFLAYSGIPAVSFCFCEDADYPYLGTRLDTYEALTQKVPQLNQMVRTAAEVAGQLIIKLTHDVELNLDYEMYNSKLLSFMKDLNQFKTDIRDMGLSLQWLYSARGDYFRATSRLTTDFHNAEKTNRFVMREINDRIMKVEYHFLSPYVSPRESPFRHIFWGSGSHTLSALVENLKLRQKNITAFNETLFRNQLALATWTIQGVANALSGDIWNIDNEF

Kd	koff	kon	Binder
1.45 nM	0.000154 s⁻¹	106000 M⁻¹ s⁻¹	B1
2.34 nM	8.76e-05 s⁻¹	37400 M⁻¹ s⁻¹	B2
9.65 nM	0.000144 s⁻¹	14900 M⁻¹ s⁻¹	B3
0.486 nM	0.000135 s⁻¹	278000 M⁻¹ s⁻¹	B4
0.286 nM	3.39e-05 s⁻¹	119000 M⁻¹ s⁻¹	B5
0.72 nM	0.000256 s⁻¹	355000 M⁻¹ s⁻¹	B6
6.81 nM	0.000432 s⁻¹	63500 M⁻¹ s⁻¹	B7
2.43 nM	9.32e-05 s⁻¹	38300 M⁻¹ s⁻¹	B8
0.291 nM	5.17e-05 s⁻¹	177000 M⁻¹ s⁻¹	B9

Target: T2, recombinant human TfR-1, His-tagged (Sino Biological 11020-H07H) (human, UniProt P02786 89-760)
T2 construct: bought; His-tagged; also called hTfR1; hTfR-1
Test: SPR, His-captured TfR1
Description: as §1, §2

T2 sequence (P02786 89-760 limits assumed): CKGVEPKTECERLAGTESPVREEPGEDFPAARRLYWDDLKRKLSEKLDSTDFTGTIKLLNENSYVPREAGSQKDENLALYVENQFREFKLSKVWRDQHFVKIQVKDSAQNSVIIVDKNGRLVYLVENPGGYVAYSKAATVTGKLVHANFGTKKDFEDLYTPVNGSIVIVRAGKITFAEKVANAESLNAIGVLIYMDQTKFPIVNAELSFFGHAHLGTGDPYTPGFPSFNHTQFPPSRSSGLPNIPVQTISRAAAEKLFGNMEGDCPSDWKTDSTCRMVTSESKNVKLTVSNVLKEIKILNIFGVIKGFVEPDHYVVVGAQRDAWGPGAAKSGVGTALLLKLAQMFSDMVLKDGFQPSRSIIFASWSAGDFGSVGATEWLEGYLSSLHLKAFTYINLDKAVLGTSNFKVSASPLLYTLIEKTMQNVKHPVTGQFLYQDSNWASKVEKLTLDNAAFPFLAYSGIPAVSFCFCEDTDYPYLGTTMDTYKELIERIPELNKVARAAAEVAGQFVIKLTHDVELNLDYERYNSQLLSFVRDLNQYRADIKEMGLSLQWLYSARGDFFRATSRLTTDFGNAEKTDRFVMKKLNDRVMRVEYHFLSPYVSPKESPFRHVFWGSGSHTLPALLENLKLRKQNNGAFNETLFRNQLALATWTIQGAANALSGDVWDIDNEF

Kd	koff	kon	Binder
2.79 nM	0.000322 s⁻¹	115000 M⁻¹ s⁻¹	B1
2.79 nM	0.000389 s⁻¹	140000 M⁻¹ s⁻¹	B10
8.44 nM	0.000627 s⁻¹	74200 M⁻¹ s⁻¹	B11
9.21 nM	0.000325 s⁻¹	35200 M⁻¹ s⁻¹	B2
49.4 nM	0.000677 s⁻¹	13700 M⁻¹ s⁻¹	B3
0.733 nM	0.000302 s⁻¹	411000 M⁻¹ s⁻¹	B4
0.636 nM	7.02e-05 s⁻¹	110000 M⁻¹ s⁻¹	B5
0.311 nM	0.000119 s⁻¹	381000 M⁻¹ s⁻¹	B6
1.36 nM	0.000432 s⁻¹	317000 M⁻¹ s⁻¹	B12
4.5 nM	0.000519 s⁻¹	115000 M⁻¹ s⁻¹	B7
26.5 nM	0.000754 s⁻¹	28500 M⁻¹ s⁻¹	B8
0.472 nM	9.01e-05 s⁻¹	191000 M⁻¹ s⁻¹	B9
4.58 nM	0.000437 s⁻¹	95500 M⁻¹ s⁻¹	B13
19.3 nM	0.000955 s⁻¹	49500 M⁻¹ s⁻¹	B14
2.19 nM	0.000194 s⁻¹	88800 M⁻¹ s⁻¹	B15
17.1 nM	0.000569 s⁻¹	33300 M⁻¹ s⁻¹	B16
